The values that follow come from US20050079156A1, “Method of treating endometreosis” (priority 2001, published 2005).

Holding throughout (format): cell-based
For one test, the system named is aromatase mRNA. The experiment in a line: Aromatase mRNA expression in human adipocytes by RT-PCR. As to conditions: for aromatase mRNA expression (induction by cytokine alone): cytokine 0.1 ug/ml. As for the experimental part:
Adipocyte cultures were treated with IL-1-β, IFN-γ, TNF-α, and combinations of IL-1-β, and IFN-γ and TNF-α and IFN-γ. Subsequently, total RNA from cultured adipocytes was isolated using conventional methods. The reverse transcriptase polymerase chain reaction (RT-PCR) was performed using aromatase specific primers. The amplified aromatase cDNA fragments produced by RT-PCR were separated on an agarose gel. As shown in the FIG. 3, IL-1 and TNF alone induce transcription of aromatase mRNA compared to untreated control. However, the administration of IFN-γ inhibits the transcription of aromatase mRNA when given together IL-1 or TNF.
Human adipocytes (from one flask with 100% confluence) obtained from Zen-Bio,Inc were cultured for 72 hr in the presence or absence of 0.1 ug/ml of different Cytokines as indicated with and without IFN-γ (0.1 ug/ml, all Cytokines were purchased from R&D except FAS ligand, TRAIL and OX40 Ligands were obtained from Alexis). Total RNA was extracted for RT-PCR (30 cycles with 50 ng RNA/each sample) using human aromatase and GAPDH specific oligos (20 mers).

The test system of the next test is human preadipocytes. The experiment in a line: Cytokine stimulation of estradiol production in human preadipocytes. The note with it: 72 hr, FIG. 9. The protocol:
[…] The amount of estradiol release in the conditioned media was determined by radioimmunoassay for estradiol using the Active™ Estradiol EIA kit according to the manufacturer's instructions (catalog no. DSL-10-4300, Diagnostic Systems Laboratories, Inc., Webster, Tex.). Each value represents the mean±S.E.M. of triplicate wells. Similar results were reproducible in 10 additional experiments using cells derived from either male or female patients.

The next test has as its system human adipocytes. The experiment in a line: Estradiol production in cultured human adipocytes (estradiol in conditioned media). As to conditions: for estradiol production (effect of cytokine alone): human adipocytes, different doses of IL-1α and IL-1β; for estradiol production stimulated by a mixture of 6 cytokines: mix of IL-1b, TNF-α, IL-6, IL-8, IL-11, oncostatin M 0.01 ug/ml each, IFN-α 1 ug/ml, IFN-b 2 ug/ml, FIG. 4. As for the experimental part:
Human subcutaneous cultured adipocytes, catalog nos. SP-1012, SP-1024, SP-1096, SP-75, or SP-25 were purchased from Zen-Bio, Inc. (Research Triangle Park, N.C.) and cultured according to the manufacturer's instructions.
Human adipocytes (approximately 100,000 cells/well) were cultured for 24 hr in the presence or absence of different doses of IL-1α and IL-1β (as indicated) with and without IFN-γ (0.1 ug/ml, IL-1α, IL-1β and IFN-γ were purchased from R&D). The amount of estradiol release in the conditioned media was determined by radioimmunoassay for estradiol using the Active™ Estradiol EIA kit according to the manufacturer's instructions (catalog no. DSL-10-4300, Diagnostic Systems Laboratories, Inc., Webster, Tex.). Each value represents the mean±S.E.M. of triplicate wells.
Human adipocytes (100,000 cells/well) were cultured for 72 hr with and without increasing doses of IFN-γ (0.0001 to 1 ug/ml, purchased from R&D). The amount of estradiol in the conditioned media was determined by radioimmunoassay as described in Example 1. Each value represents the mean±S.E.M. of triplicate wells.
Human adipocytes (100,000 cells/well) were cultured for 72 hr in the presence or absence of different doses of the mix Cytokines (IL-1b, TNF-α, IL-6, IL-8, IL-11 and oncostatin M, 0.01 ug/ml/each—dilution as indicated) with and without IFN-γ (0.1 ug/ml), […] (1 ug/ml) or IFN-b (2 ug/ml). IFN-α was purchased from PBL while IFN-b was obtained from Serono. The amount of estradiol release in the conditioned media was determined by radioimmunoassay as described in Example 1. Each value represents the mean±S.E.M. of triplicate wells.
Human adipocytes (100,000 cells/well) obtained from Zen-Bio,Inc were cultured for 48 hr in the presence or absence of different doses of the cytokine mix (dilution as indicated) with and without IFN-γ (0.1 ug/ml). The amount of estradiol release in the conditioned media was determined by radioimmunoassay as described in Example 1. Each value represents the mean±S.E.M. of triplicate wells.
Human adipocytes (100,000 cells/well) obtained from Zen-Bio, Inc were cultured for 72 hr in the presence or absence of different doses of LPS (as indicated) with and without IFN-γ (0.1 ug/ml, LPS were purchased from Sigma). The amount of estradiol release in the conditioned media was determined by radioimmunoassay as described in Example 1. Each value represents the mean±S.E.M. of triplicate wells.
Human adipocytes (100,000 cells/well) obtained from Zen-Bio, Inc were cultured for 48 hr in the presence or absence of different doses of the mix LPS, PMA and PGE2 (dilution as indicated) with and without IFN-γ (0.1 ug/ml). IFN-γ was added at the same as the mix, 8 hr or 24 hr after the mix of the LPS, PMA and PGE2 which were purchased from Sigma. The amount of estradiol release in the conditioned media was determined by radioimmunoassay as described in Example 1. Each value represents the mean±S.E.M. of triplicate wells.

On to “LIF: leukemia inhibitory factor, cytokine”, for which the “aromatase mRNA expression (induction by cytokine alone)” value (from here on “aromatase mRNA expression”) in the test on aromatase mRNA (72 hr, FIG. 8) is reported as “induce”.
With IGF-1: insulin growth factor-1, the “estradiol production (stimulation by cytokine)” value in the test on human preadipocytes (cytokine 5 ug/ml) is reported as “stimulate”.
On to “TRAIL: tumor necrosis factor-related apoptosis-inducing ligand, obtained from Alexis”, for which the “aromatase mRNA expression” value in the test on aromatase mRNA (72 hr, FIG. 8) is “induce”.
In the case of “IL-1β: interleukin-1 beta, cytokine purchased from R&D”, in the test on human adipocytes (24 hr, FIG. 1), the “estradiol production (effect of cytokine alone)” value was “significantly increased estradiol production”. In addition, in the test with aromatase mRNA (adipocyte cultures, FIG. 3), the “transcription of aromatase mRNA (cytokine alone compared to untreated control)” value is “induce”. Also, the “aromatase mRNA expression” value in the test on aromatase mRNA (72 hr, FIG. 8) is “induce”.
Turning to IFN-α, in the test with human adipocytes (72 hr, IFN-γ 0.1 ug/ml), the “estradiol production stimulated by a mixture of 6 cytokines” value was “do not inhibit”.
In the case of GH: human growth hormone, in the test on human preadipocytes (cytokine 5 ug/ml), the “estradiol production (stimulation by cytokine)” value is “stimulate”.
Turning to IL-8: interleukin-8, cytokine, the “estradiol production (stimulation by cytokine)” value with human preadipocytes (cytokine 0.5 ug/ml) is “stimulate”.
Consider IL-6: interleukin-6, cytokine, for which the “estradiol production (stimulation by cytokine)” value with human preadipocytes (cytokine 0.5 ug/ml) is reported as “stimulate”. Besides, the “aromatase mRNA expression” value in the test with aromatase mRNA (72 hr, FIG. 8) was “induce”.

B1: OSM: oncostatin M, cytokine (protein, UniProt P13725 26-221, looked up)
Oncostatin-M: AAIGSCSKEYRVLLGQLQKQTDLMQDTSRLLDPYIRIQGLDVPKLREHCRERPGAFPSEETLRGLGRRGFLQTLNATLGCVLHRLADLEQRLPKAQDLERSGLNIEDLEKLQMARPNILGLRNNIYCMAQLLDNSDTAEPTKAGRGASQPPTPTPASDAFQRKLEGCRFLHGYHRFMHSVGRVFSKWGESPNRSRR
In the case of B1, the “estradiol production (stimulation by cytokine)” value with human preadipocytes (cytokine 0.5 ug/ml) was “stimulate”.

B2: IL-11: interleukin-11, cytokine (protein, UniProt P20809 22-199, looked up)
Interleukin-11: PGPPPGPPRVSPDPRAELDSTVLLTRSLLADTRQLAAQLRDKFPADGDHNLDSLPTLAMSAGALGALQLPGVLTRLRADLLSYLRHVQWLRRAGGSSLKTLEPELGTLQARLDRLLRRLQLLMSRLALPQPPPDPPAPPLAPPSSAWGGIRAAHAILGGLHLTLDWAVRGLLLLKTRL
For B2, in the test on human preadipocytes (cytokine 0.5 ug/ml), the “estradiol production (stimulation by cytokine)” value was “stimulate”. Also, the “aromatase mRNA expression” value in the test on aromatase mRNA (72 hr, FIG. 8) is recorded as “induce”.

B3: IFN-γ: interferon-gamma, recombinant human, purchased from R&D (protein, UniProt P01579 24-161, looked up)
Interferon gamma: QDPYVKEAENLKKYFNAGHSDVADNGTLFLGILKNWKEESDRKIMQSQIVSFYFKLFKNFKDDQSIQKSVETIKEDMNVKFFNSNKKKRDDFEKLTNYSVTDLNVQRKAIHELIQVMAELSPAAKTGKRKRSQMLFRG
With B3, the “estradiol production stimulated by a mixture of 15 cytokines” value with human adipocytes (15 cytokines 0.01 ug/ml each, 48 hr, IFN-γ 0.1 ug/ml, FIG. 5) is recorded as “inhibited”. In the test on human adipocytes (72 hr, IFN-γ 0.1 ug/ml, FIG. 6), the “LPS stimulated estradiol production” value is listed as “inhibits”. In addition, the “IL-1α and IL-1β induced estradiol production” value with human adipocytes (IFN-γ 0.1 ug/ml, 24 hr, FIG. 1) was “inhibits”. Moreover, the constitutive estradiol production result in the test with human adipocytes (IFN-γ 0.0001 to 1 ug/ml, 72 hr, FIG. 2) is listed as “dose-dependent inhibitory effect”. In the test on human adipocytes (mix PMA 5 ng/ml, LPS 10 ug/ml, PGE2 10 ug/ml, 48 hr, IFN-γ 0.1 ug/ml added at same time, 8 hr or 24 hr after the mix, FIG. 7), the “PMA, LPS and PGE2 stimulated estradiol production” value is on record as “inhibits”. Moreover, the “estradiol production stimulated by a mixture of 6 cytokines” value in the test with human adipocytes (72 hr, IFN-γ 0.1 ug/ml) was “inhibits”. The “constitutive aromatase mRNA” value in the test with aromatase mRNA (adipocyte cultures, Example 3) was “Inhibited”. The “transcription of aromatase mRNA when given together IL-1 or TNF” value in the test with aromatase mRNA (adipocyte cultures, FIG. 3) is recorded as “inhibits”. For the same molecule, the “induced expression of aromatase mRNA by TRAIL, OX40, IL-1β, IL-6, IL-11 and LIF” value in the test on aromatase mRNA (cytokines 0.1 ug/ml, IFN-γ 0.1 ug/ml, 72 hr, FIG. 8) is on record as “inhibits”.

B4: OX40L: OX40 Ligand, obtained from Alexis (protein, UniProt P23510 1-183, looked up)
Tumor necrosis factor ligand …: MERVQPLEENVGNAARPRFERNKLLLVASVIQGLGLLLCFTYICLHFSALQVSHRYPRIQSIKVQFTEYKKEKGFILTSQKEDEIMKVQNNSVIINCDGFYLISLKGYFSQEVNISLHYQKDEEPLFQLKKVRSVNSLMVASLTYKDKVYLNVTTDNTSLDDFHVNGGELILIHQNPGEFCVL
As to B4, the “aromatase mRNA expression” value with aromatase mRNA (72 hr, FIG. 8) is reported as “induce”.

B5: IL-1α: interleukin-1-alpha, cytokine purchased from R&D (protein, UniProt P01583 113-271, looked up)
Interleukin-1 alpha: SAPFSFLSNVKYNFMRIIKYEFILNDALNQSIIRANDQYLTAAALHNLDEAVKFDMGAYKSSKDDAKITVILRISKTQLYVTAQDEDQPVLLKEMPEIPKTITGSETNLLFFWETHGTKNYFTSVAHPNLFIATKQDYWVCLAGGPPSITDFQILENQA
For the molecule B5, the “estradiol production (effect of cytokine alone)” value with human adipocytes (24 hr, FIG. 1) was “significantly increased estradiol production”.
